This series concerns the molecule itself. The series is described as follows: SEC; Superdex 200 10/300 GL in crosslinking buffer (0.1 M potassium phosphate, 5 mM EDTA, 0.150 M NaCl, pH 6.5-7.0), 0.75 ml/min; mutant reduced with TCEP before loading; fractions followed by A280 and catalytic activity; starting solution of low purity.

B1: L-asparaginase mutant A38C-T263C (enzyme, E. coli, UniProt P00805 23-348, looked up)
chain: LPNITILATGGTIAGGGDSATKSNYTVGKVGVENLVNCVPQLKDIANVKGEQVVNIGSQDMNDNVWLTLAKKINTDCDKTDGFVITHGTDTMEETAYFLDLTVKCDKPVVMVGAMRPSTSMSADGPFNLYNAVVTAADKASANRGVLVVMNDTVLDGRDVTKTNTTDVATFKSVNYGPLGYIHNGKIDYQRTPARKHTSDTPFDVSKLNELPKVGIVYNYANASDLPAKALVDAGYDGIVSAGVGNGNLYKSVFDTLATAAKCGTAVVRSSRVPTGATTQDAEVDDAKYGFVASGTLNPQKARVLLQLALTQTKDPQQIQQIFNQY
notes: L-asparaginase II of E. coli (ansB), expressed with its natural signal peptide, which was excised; In the cross-linking experiments the two introduced cysteines were reacted with Bi-MAL-PEG (2000 or 5000 g/mol) after reduction with TCEP; also called mutant L-asparaginase; precursor mutant
As for B1, the binding result is reported as “binds”.

For the origin of these results see article PMC6063399, “Thiol-maleimide poly(ethylene glycol) crosslinking of L-asparaginase subunits at recombinant cysteine residues introduced by mutagenesis” (PLoS ONE, 2018).
